± gives the uncertainty stated by the source.

The nature of this data set: amyloid nucleation score (Sup35N fusion, yeast selection) (log enrichment); library NNK3; higher = more nucleation; inactive = no reads after selection. In outline: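 The nucleation score is the DiMSum log enrichment of output over input reads, centred on the mode score of non-aggregating sequences. Only sequences with 100 or more input reads were scored, using Illumina sequencing of input and output plasmid inserts. Psi-negative yeast expressing Sup35N fused to peptides of 20 random codons were induced 24 hours with 100 μM copper sulfate and grown 7 days at 30°C on medium lacking adenine and uracil.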
With SVRSGLARVSRTGMG, the amyloid nucleation score result is “inactive”. Regarding DIAREVCSTCLKV, the amyloid nucleation score entry is “inactive”. Take YLMNVLFAYVD: the amyloid nucleation score entry was “inactive”.

SQCRVYN: the amyloid nucleation score entry is “inactive”. Turning to EFLPSCICDGKFISSLVCEP, the amyloid nucleation score result was “inactive”. Take QWWSLVTCQAMMN: the amyloid nucleation score result was “inactive”. Consider VNVEFLASVFPWNISKKCEQ, for which the amyloid nucleation score entry was “inactive”. For the substance CSHYFNVYTLRCISSIGDS, the amyloid nucleation score result is “inactive”. With SMNFVLLRGGRRMIQQDRVR, the amyloid nucleation score entry was “inactive”.

For KYVSECK, the amyloid nucleation score entry was “inactive”. For the substance VPSPTFIHVARRSRYHYASR, the amyloid nucleation score result is “inactive”. To VYYSWVICSMERTKSWSMSS belongs -0.227 ± 0.75; to VRMMFSWPK, 0.902 ± 0.24. With KGVKYMDGH, the amyloid nucleation score came out at 0.303 ± 0.2. With IDTTQVLGMNS, the amyloid nucleation score result is “inactive”.

On to LDEIWIKDFSMSSHVAGRHS, for which the amyloid nucleation score result was “inactive”. To LRRFWDRIPCFCLFHRFSFY belongs “inactive”; to RLYILAGGDFCNSCVVAYCR, 0.147 ± 0.36; to DYFEYCRRSKRFPKKDQPVN, -0.638 ± 0.84.

LSGDLVCRKVFTRRCTSKWL: the amyloid nucleation score result was “inactive”. To DFSSCCDHPFIVI belongs 0.346 ± 0.75; to MSCICGKPTAVCI, “inactive”; to ISTCMMFLF, “inactive”. In the case of WSFMLFSVSYYNQGEAVLPA, the amyloid nucleation score result was “inactive”. With MYRLVGHLTIHVVMVLAQWW, the amyloid nucleation score result was “inactive”.

Regarding WQLRQGDLGSHVRRFLQLYR, the amyloid nucleation score result is “inactive”. WIERAAAALVLDLLCSKRRA: the amyloid nucleation score entry is “inactive”. Substance CVVDNRRCLFLYWSLVSFNW showed an amyloid nucleation score of 1.18 ± 0.13. As to TSPPGRIDMQTSWDMFYADE, the amyloid nucleation score entry was “inactive”. To NYVLGGCNLGSSGCRVRLSC belongs “inactive”; to GLLNRIIVLYTLLNSDIRES, “inactive”; to YIPGGFRNFGMV, “inactive”. Turning to SSLRLRDMSASENNRGSMPV, the amyloid nucleation score result is “inactive”. HSLFIFNFGCL: the amyloid nucleation score was 2.96 ± 0.054. On to PGISRNFVNGPRWSMFS, for which the amyloid nucleation score entry was “inactive”. With NLPLYPSGFFKSMIRNRVLT, the amyloid nucleation score is 1.66 ± 0.083. The substance GFYTVFCIMQSAEGLDGTVW returned an amyloid nucleation score of 1.26 ± 0.12.

For NRLRV, the amyloid nucleation score entry was “inactive”.

Consider KRWIAHASWSSTGTWFWSGG, for which the amyloid nucleation score result was “inactive”. In the case of FTYCRASRSITMQYVCVICT, the amyloid nucleation score entry was “inactive”. Turning to SGGNLWGFVDTLFIGMRIRY, the amyloid nucleation score result is “inactive”. SVVSCMWMWHLVRYKH: the amyloid nucleation score was -0.509 ± 1.8.

Regarding PCASLM, the amyloid nucleation score result was “inactive”.

For the substance FRGKISKEPNCVVYFQQGRP, the amyloid nucleation score entry was “inactive”. For VTGLEVRHQRHIWHNMGMIR, the amyloid nucleation score entry was “inactive”. With SYFNRYRCSSCHKPGYDHTW, the amyloid nucleation score result is “inactive”. As for YTKMGTRLAFFWIRMMMRGR, the amyloid nucleation score entry is “inactive”. To YERWKLVHHGKNMYEGVYRL belongs “inactive”; to PEYCKAWLRWKPISVYTQVW, “inactive”. Consider DRIGVQ, for which the amyloid nucleation score entry was “inactive”. Consider NLDRLWTNQGFAFWIRTYVV, for which the amyloid nucleation score entry was “inactive”. To RNWERIASGHVFCFLLCIID belongs “inactive”; to YLWGGLRMYCRKLQHYFVLS, “inactive”; to TRFDSVVMRKFYWVGSVRGL, “inactive”. LAVALIIRMSYLELGLLNPT: the amyloid nucleation score result was “inactive”. To SVLGVSTYSLCSSVNCIFRF belongs 2.74 ± 0.062; to WKRNFIW, “inactive”. With VRTYNQCKSHVLDWLRNTYF, the amyloid nucleation score is -0.295 ± 0.96. Take SLIWPSYDYLDNFLGYYSLK: the amyloid nucleation score entry was “inactive”. As to GSRSARMGVVRRGRRCSECY, the amyloid nucleation score result is “inactive”. Take VSYVGLDSDICSFNWLSLLA: the amyloid nucleation score result was “inactive”.

For the substance TINDLSCGASRDGWMPVYS, the amyloid nucleation score result is “inactive”. To FHLLPKMCLLLSTLIRSGIT belongs “inactive”; to IVGLDLCVHWQYLQVRLYII, “inactive”. In turn, CDNWLSYMWFYGNGAAPEGR returned an amyloid nucleation score of 2.06 ± 0.094.

Consider HFCLEYTLNVTMHAWTL, for which the amyloid nucleation score result was “inactive”. To ASRHSQMWIS belongs 0.129 ± 0.88.

In the case of RSCVLMVASVSNRNRPGDVS, the amyloid nucleation score entry was “inactive”. For the substance ISLDLG, the amyloid nucleation score result is “inactive”. Regarding NYIWLFVLYAIVRFSHWLDF, the amyloid nucleation score was 0.779 ± 0.14. With RVMWYGGCCWSVIYCHRLGV, the amyloid nucleation score result is “inactive”. To LYVSCWFDLRPSTFYLGSEF belongs 2.48 ± 0.054; to CRRVDFGSLSRFMGSGFNVD, “inactive”.

Turning to MTFTCFVRFPTVRYNAKGCL, the amyloid nucleation score result was “inactive”.

Turning to HVIKNFSADISIDDFFYLGM, the amyloid nucleation score result was “inactive”. Take KVVIF: the amyloid nucleation score entry is “inactive”. To DSCQKVVWIGSGEVRKAWRY belongs “inactive”. ISQCVCSSYA had an amyloid nucleation score of -0.265 ± 0.7. As to CCNMYVSFTCWHRRRSFS, the amyloid nucleation score worked out at 1.23 ± 0.13. As to MRAIMWFINKDLLLTCGDDS, the amyloid nucleation score result was “inactive”. With WDGYCSRQDRLRFAYRLGVG, the amyloid nucleation score entry is “inactive”. The substance TNMYSDSVIYVMHYGIPGGP registered an amyloid nucleation score of 1.63 ± 0.092. VRTNPGGFWLNLCQQTQKES: the amyloid nucleation score result is “inactive”. The substance EDKGYWNLQAIEIVIQYGGR showed an amyloid nucleation score of 0.225 ± 0.43.

As to VSTSPNIDSLRCFCIHVKRR, the amyloid nucleation score entry is “inactive”. On to SGATVLSLSMY, for which the amyloid nucleation score result is “inactive”. With GLKKWLFD, the amyloid nucleation score entry is “inactive”.

For SIIGGWCGNE, the amyloid nucleation score result is “inactive”. To NDASPLFSKGVLDFLSTKSL belongs “inactive”; to YPPWWFYIRNWLISEEE, “inactive”. For LHAWAVVLGFLETP, the amyloid nucleation score entry is “inactive”. To AYSSHFTCRPYGFNLWSLGS belongs “inactive”. As for RKLFKKTFYLAPRL, the amyloid nucleation score entry is “inactive”. To GTFNIDVEVMVYRAGLFKHV belongs “inactive”. With VYSTVF, the amyloid nucleation score entry was “inactive”. As for DSYDLYIVD, the amyloid nucleation score entry is “inactive”.

With GDRLFLKASG, the amyloid nucleation score result was “inactive”. To YDADRGEWLQLITSPDPFFY belongs “inactive”.

Take WCGVFWLVVMAY: the amyloid nucleation score result is “inactive”.

For LNLLKLRKKAPHRPIPGRSG, the amyloid nucleation score result is “inactive”. For the substance QYQCADGKDNFIL, the amyloid nucleation score result is “inactive”. Regarding YTLVVQTSMVVFLRLYSGRY, the amyloid nucleation score entry was “inactive”. In turn, HFPSFFSIIPYRACNTACSA came in with an amyloid nucleation score of -0.984 ± 1.4. VTKAWMCYYLLLYVWDEGRA: the amyloid nucleation score entry is “inactive”.

Regarding YKCYMFANYGIPVVVLFVVL, the amyloid nucleation score entry is “inactive”. For the substance CPFHIIHKQSLRKMMSTWEA, the amyloid nucleation score entry was “inactive”.

With VVSLMDTPFD, the amyloid nucleation score result was “inactive”.

PIPHML registered an amyloid nucleation score of -0.592 ± 0.75. As to EVLSNDGAGLFFHGKKCMYI, the amyloid nucleation score entry is “inactive”. To MGDSVFRCLCNTYALLFPPV belongs “inactive”; to VDSILAMGRGAYVID, “inactive”.

As to SFYNCTEVETHGRRICIFLY, the amyloid nucleation score result was “inactive”. Turning to QMCTQLSIMI, the amyloid nucleation score result was “inactive”.

As for ACSNWMRLMLVWNSTRNRVV, the amyloid nucleation score result was “inactive”. On to KMDKFPV, for which the amyloid nucleation score was found to be 0.391 ± 0.34. Regarding MDSPTGLALDG, the amyloid nucleation score entry was “inactive”.

Take LYSAGLNEFLL: the amyloid nucleation score result was “inactive”. Regarding KYICET, the amyloid nucleation score result is “inactive”. For the substance IIYVNTSEGVSVFRNWSDDV, the amyloid nucleation score entry was “inactive”. In the case of LFIWCTFFVIMFCSTTRVSI, the amyloid nucleation score was 1.17 ± 0.16. To SSCRDVWWKVVVVPTFTGGV belongs “inactive”.

For SMSNQSSTFDSLLFRQWLVV, the amyloid nucleation score entry was “inactive”. Take GIVNYRPAYP: the amyloid nucleation score result was “inactive”. To VCQESPSEIGES belongs “inactive”; to MILNWARQRGIECMAYSRVW, “inactive”.

As to YFVIIYWLAPHHSNLLISFP, the amyloid nucleation score entry was “inactive”. Consider MNTSDSARKSRYRARG, for which the amyloid nucleation score result was “inactive”. For the substance QVPYFYLSVFLFFSPCSINF, the amyloid nucleation score turned out to be 1.74 ± 0.063.

FVLSMECSSRSSPSHTRDCA came in with an amyloid nucleation score of -0.083 ± 0.33. Turning to IIMISLITYFLSLNTSKLYQ, the amyloid nucleation score result is “inactive”. With PGWVDHIEAISRTVRGWFGP, the amyloid nucleation score came out at 1.77 ± 0.12.

Source of the values: the supplement of paper PMC12042874.
